Patent publication US7531643
Blank lines part the entries; values can stand above or below the molecule they belong to.

Experiments:
[1] = biological target: human Integrin Associated Protein (IAP) (human) (UniProt Q08722); assay: cell ELISA, CF1-hIAP-55-8 minus CF1-pCOS1, antibody at 3 µg/ml
[2] = biological target: human Integrin Associated Protein (IAP) (human) (UniProt Q08722); assay: cell ELISA on PLP-fixed CF-1 cells expressing human IAP, antibody at 3 µg/ml
[3] = biological target: human Integrin Associated Protein (IAP) (human) (UniProt Q08722); assay: cell-based or functional assay
[4] = biological target: human Integrin Associated Protein (IAP) (human) (UniProt Q08722); assay: cell ELISA, CF1-hIAP-55-8 minus CF1-pCOS1, hybridoma culture supernatant
[5] = biological target: human Integrin Associated Protein (IAP) (human) (UniProt Q08722); assay: cell ELISA on PLP-fixed CF-1 cells expressing human IAP, hybridoma culture supernatant

Sequence of UniProt Q08722 (Q08722 19-323): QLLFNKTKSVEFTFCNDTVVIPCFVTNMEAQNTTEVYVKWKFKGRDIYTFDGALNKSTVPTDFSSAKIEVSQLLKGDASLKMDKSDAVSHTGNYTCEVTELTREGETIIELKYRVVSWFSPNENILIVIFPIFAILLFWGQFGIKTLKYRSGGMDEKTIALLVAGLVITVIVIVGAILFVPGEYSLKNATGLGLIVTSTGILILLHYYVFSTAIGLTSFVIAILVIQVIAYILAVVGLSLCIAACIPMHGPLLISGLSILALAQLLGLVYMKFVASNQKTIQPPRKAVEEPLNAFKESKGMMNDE

Specific binding (absorbance, CF1-pCOS1 subtracted) [1]: 0.296 absorbance
absorbance in ELISA (raw data, CF1-hIAP-55-8) [2]: 0.456 absorbance
Molecule: human IAP-recognizing anti-CD47 antibody (PharMingen)

percentage (%) of apoptosis of Jurkat cells, PI staining, flow cytometry (8G2 control supernatant 7.43%) [3]: 9.84%
Specific binding (absorbance, CF1-pCOS1 subtracted) [4]: 0.379 absorbance
absorbance in ELISA (raw data, CF1-hIAP-55-8) [5]: 0.568 absorbance
B1: monoclonal antibody of hybridoma 7D2-E3 (antibody, from another filing, IgG2a)
scFv: QVQLQQSGPELVKPGASVKMSCKASGYTFANHVIHWVKQKPGQGLEWIGYIYPYNDGTKYNEKFKDKATLTSDKSSTTAYMDLSSLASEDSAVYYCARGGYYTYDDWGQGTTLTVSSGGGGSGGGGSGGGGSDVVMTQSPLSLPVSLGDQASISCRSSQSLVHSNGKTYLHWYLQKPGQSPKLLIYKVSNRFSGVPDRFSGSGSVTDFTLMISRVEAEDLGVYFCSQSTHVPYTFGGGTKLEIKDYKDDDDK
